Reference: patent US6461815

What was measured:
[1] = test system: 30S ribosomal subunit (mRNA-programmed, activated; ribonucleoprotein); assay: filter; details: CMN buffer 20 mM MgCl2, pH 7.2
[2] = test system: 30S ribosomal subunit (mRNA-programmed, activated; ribonucleoprotein); assay: FP; details: mnm5s2U34 and other native modifications; nitrocellulose filter binding (method is filter); poly(A)-programmed; CMN buffer 20 mM MgCl2, 100 mM NH4Cl, pH 7.2, 37 C then ice

In the case of “UCAGACUUUUAAUCUGA [ASLLys3(SUU), s2U34 anticodon stem-loop]”, the Kd ([1]; s2U at tRNA position 34, poly(A)-programmed, also bound poly(AG)-programmed 30S) is reported as 176 nM.

“E. coli tRNALys(SUU), native fully modified” showed a Kd [2] of 70 nM.

“yeast ASLPhe(GAA), unmodified anticodon stem-loop” showed a Kd ([1]; poly(U)-programmed) of 136 nM.

Substance yeast tRNAPhe(GmAA), native has a Kd ([1]; Gm34 and other native modifications, poly(U)-programmed) of 103 nM.
